These results are taken from publication PMC3796545, “Protein-Protein Interactions as a Strategy towards Protein-Specific Drug Design: The Example of Ataxin-1” (PLoS ONE, 2013).

B1: L-CICp [human] / ATX1 AXH (residues A567-K689 of human ATX1) [human] (parent complex)
chain 1: VFPWHSLVPFLAPSQ
chain 2: GAMAPPTLPPYFMKGSIIQLANGELKKVEDLKTEDFIQSAEISNDLKIDSSTVERIEDSHSPGVAVIQFAVGEHRAQVSVEVLVEYPFFVFGQGWSSCCPERTSQLFDLPCSKLSVGDVCISLTLK

The variants in the assay derive from B1. Nature of the assay: ITC; parent: 30 nM.
On to chain 1 P9A, for which the Kd is 40 nM.

Regarding chain 1 S6A, the Kd is 10 nM.

With chain 1 A12G, the equilibrium dissociation constant (Kd) was 20 nM.

chain 1 F10A: the dissociation constant Kd worked out at 60 nM.

On to chain 1 V1A, for which the Kd was 20 nM.

As to chain 1 F2A, the Kd is 30 nM.

On to chain 1 V8A, for which the Kd stood at 70 nM.

As to chain 1 P13A, the dissociation constant Kd was 20 nM.

For the variant chain 1 L7A, the Kd came to 500 nM.

For chain 1 P3A, the Kd was 40 nM.

Turning to chain 1 W4A, the Kd turned out to be 2600 nM.

Regarding chain 1 L11A, the dissociation constant (Kd) was found to be 50 nM.

On to chain 1 H5A, for which the Kd amounted to 50 nM.
